Paper PMC6499999

Key:
[1] = target: RelSt3 relaxase encoded by ICESt3 from Streptococcus thermophilus (Streptococcus thermophilus (ICESt3)); assay: cross-linking; 5 ug RelSt3 in 20 uL with 0.001 to 0.1% glutaraldehyde, 15 min at room temperature, stopped with glycine; 10% SDS-PAGE, Coomassie
[2] = target: RelSt3 relaxase encoded by ICESt3 from Streptococcus thermophilus (Streptococcus thermophilus (ICESt3)); assay: AUC; sedimentation velocity at 1 and 5 uM in 20 mM Tris-HCl pH 7.5, 500 mM NaCl, 25 °C, 42,000 rpm, absorbance at 280 nm; c(s) analysis with Sedfit
[3] = target: RelSt3 relaxase encoded by ICESt3 from Streptococcus thermophilus (Streptococcus thermophilus (ICESt3)); assay: SEC; calibrated Superdex 200 gel filtration, final step of purification; single elution peak at 72.4 mL, apparent molecular weight about 88 kDa against a predicted 48.5 kDa

Measured: stoichiometry N

RelSt3 relaxase encoded by ICESt3 from Streptococcus thermophilus (enzyme)
2: [1] | [2] | [3]
